According to patent US12337037B2, “Taxol conjugate compounds, pharmaceutical compositions comprising the same, and methods for their use” (N1 Life, Inc, priority 2021, dated 2025):
Where “and” joins values, the source holds several entries; their conditions need not be identical. Identical values can stand only once.

Key:
[1] = Safety: animal body weight change after dosing, tumor bearing mice; conditions: for Weight on day 21 (MEAN ± SD) / Weight on day 0 (MEAN ± SD): IP Q5D (day 0, 5, 10); for Weight on day 21 (MEAN ± SD) / Weight on day 0 (MEAN ± SD) / Weight gain (%): Taxol 10 mg/kg; for Weight on day 0 (MEAN ± SD): baseline; for Weight gain (%): day 0 to day 21, IP Q5D
Description: Animals: Female athymic nude mice were used in this study. The experimental mice were purchased from Shibefu (Beijing) Biotechnology Co., Ltd. (QC number: SCXK Beijing 2019-0010) and maintained in a High Efficiency Particulate Air Filter (HEPA) filtered environment with cages, food and bedding sterilized by irradiation or autoclaving.
Establishment of peritoneal disseminated metastasis model of human ovarian cancer: Human ovarian cancer (SKOV-3-GFP) cells in logarithmic growth period were digested with 0.25% trypsin, rinsed with phosphate buffer (PBS) twice, centrifuged, and suspended with serum-free RPMI1640 medium. Cell suspension (6×10^6/120 μL/mouse) was injected into the peritoneal cavity of each experimental mouse for the establishment of peritoneal disseminated metastasis model of human ovarian cancer.
Groups, testing articles and treatment protocols: Day 4 after cell inoculation, all mice were subjected to systemic imaging using FluorVivo Model-100 (INDEC biosystems, CA, USA). Mice with a small deviation from average tumor load were enrolled in the study. All animals were randomly allocated to the different study groups, 6 mice in each group. Dosing schedule was Q5D (day 0, 5, 10), dosing volume was 10 μl/g, and administration route was intraperitoneal injection. Each dose of Compound 3 or Compound 5 was 9.6 mg/kg (equimolar to 2.5 mg/kg Taxol) and each dose of Taxol was 10 mg/kg. Taxol working solutions were prepared from 6 mg/mL stock solution, while Compounds were dissolved in PBS (pH 7.4) and filtered through 0.22 μm filter.
Monitoring of the experimental mice: During the period of the study, all experimental mice were checked daily for mortality or signs of morbidity. Images of tumor progression were acquired three times a week during the period of the study with the FluorVivo imaging system, Model 100/Mag (INDEC BioSystems, CA, USA). The body weights of the mice were measured three times a week during the period of the study.
Study endpoint: On Day 21 after administration, animals were euthanized by inhalation of excessive anesthetics. All tumors were exposed for imaging (under the same exposure conditions), after which the tumors were removed and weighed with an electronic balance (Sartorius BS 124 S, Germany). The tumor samples were then stored in formalin solution.
Statistical methods used in efficacy evaluation: Comparison of body weights and tumor burdens in different groups were analyzed using EXCEL t-test with an α=0.05 (two-sided).

[2] = system: NCI-H460-luc2 human intracranial cells; assay: Efficacy against brain cancer: survival in NCI-H460-luc2 intracranial model; type: in vivo, Female BALB/c nude mice; conditions: for Increase Life Span (%): vs vehicle group; for Median Survival Time: MST ± SEM
Experimental: Cell Culture: Luciferase marked NCI-H460-luc2 human intracranial cells were maintained in vitro as a monolayer culture in ATCC formulated RPMI1640 medium supplemented with 10% heat inactivated fetal bovine serum, 100 U/mL penicillin and 100 μg/mL streptomycin at 37° C. in an atmosphere of 5% CO2 in air. The tumor cells were routinely subcultured twice weekly by trypsin-EDTA treatment. The cells growing in an exponential growth phase were harvested and counted for tumor inoculation.
Tumor Inoculation and Animal Grouping: Female BALB/c nude mice were anesthetized with avertin (20 μL/g). The animals were dosed intraperitoneally with 10 mg/kg of carprofen 30 minutes post-surgery for pain relief.
The anesthetized mouse was properly positioned. The surgical area was prepped with 70% ethanol solution. Using a sterile scalpel, a sagittal incision was made over the parieto-occipital bone, approximately 1 cm long. The exposed skull surface was then cleaned using a cotton swab soaked in 0.9% saline. Prior to tumor cell injection, a sterile 25 gauge sharp needle was used to puncture the skull at 2 mm to the right of the bregma and 1 mm anterior to the coronal suture, thereby creating an opening for the injection of tumor cells. Prior to drawing cells into the syringe, the contents of the cell suspension was mixed by tapping with finger. The syringe was loaded with the desired amount of cell suspension, and extra care was taken to avoid air bubbles. The outside of syringe was then cleaned with an alcohol swab to wipe the exterior free of any adherent cells, which helped to prevent extracranial tumor establishment and growth. To ensure that the appropriate injection depth was achieved, a 3 mm length was cut off on pointed end of a P20 pipetteman tip by a scalpel. This section of the tip was fitted over the syringe to limit the injection depth, and to ensure that the tip of the syringe needle was 3 mm from the underside of the skull. The syringe was placed perpendicular to the skull, in the hole previously created. And the cell suspension was slowly injected (a 3 μL suspension contains 1×10^5 NCI-H460-luc2 cells in 20% Matrigel should be injected over a 1 minute period). Intraventricular injection of cells and subsequent spinal dissemination was prevented by appropriate angle of syringe insertion. Upon completion of injection, the needle was left in place for another minute, and then slowly withdrawn. The hole as closed with medical anastomotic glue (OB). Using forceps, the scalp was drawn together over the skull and the incision was closed with surgical suture. The mice were kept warm until completely recovered from anesthesia.
Animals were selected and randomized (based on their bioluminescence density) on day 4 after tumor implantation.
Observations: During routine monitoring, the animals were checked daily for any effects of tumor growth and treatments on normal behavior such as mobility, food and water consumption (by looking only), body weight gain/loss (body weights were measured twice weekly or daily), eye/hair matting and any other abnormal effect stated in the protocol. Death and observed clinical signs were recorded on the basis of the numbers of animals within each subset.
Bioluminescence Measurements and Endpoints: The surgically inoculated mice were weighed and intraperitoneally administered luciferin at a dose of 150 mg/kg. Ten to fifteen minutes after the luciferin injection, the animals were pre-anesthetized with the mixture gas of oxygen and isoflurane. When the animals were in a complete anesthetic state, the mice were moved into the imaging chamber for bioluminescence measurements with an IVIS (Lumina II) imaging system.
The major endpoint was to determine if the tumor bioluminescence growth can be delayed, decreased, or vanished. […] The bioluminescence of the whole animal body, including primary and metastatic tumors, was measured and recorded once per week according to protocol (bioluminescence data not shown). […]

[3] = Table 7B (Compound 5 set), Compd 5 9.6 mg/kg
[4] = separate experiment, 38.4 mg/kg, 3 Q5D doses, tumor bearing mice
[5] = Table 7A (Compound 3 set), Compd 3 9.6 mg/kg

In the case of `CC(=O)N[C@H](CSSCCCC(=O)O[C@@H](C(=O)O[C@H]1C[C@@]2(O)[C@@H](OC(=O)c3ccccc3)[C@@H]3[C@]4(OC(C)=O)CO[C@@H]4C[C@H](O)[C@@]3(C)C(=O)[C@H](OC(C)=O)C(=C1C)C2(C)C)[C@@H](NC(=O)c1ccccc1)c1ccccc1)C(=O)N[C@H](CCCNC(=N)N)C(=O)N[C@H](CCCNC(=N)N)C(=O)N[C@H](CCCNC(=N)N)C(=O)N[C@H](CCCNC(=N)N)C(=O)N[C@H](CCCNC(=N)N)C(=O)N[C@H](CCCNC(=N)N)C(=O)N[C@H](CCCNC(=N)N)C(=O)N[C@H](CCCNC(=N)N)C(N)=O` [Compound 5, Ac-D-Cysteine (paclitaxel-4-mercaptobutanoate)-D-Arginine8-NH2], the “Weight on day 21 (MEAN ± SD)” value [1, 3] is reported as 16.9 ± 1.1, the “Weight on day 0 (MEAN ± SD)” value [1, 3] is reported as 16.9 ± 0.6 and the “Weight gain (%)” value [1, 3] is reported as “no change in body weight”. For the same molecule, the “Weight gain (%)” value ([1]; Table 7B (Compound 5 set), Compd 5 9.6 mg/kg, listed as Compd 5) was 0%, the animal deaths [1, 4] was “One mouse in this group was found dead on Day 18” and the “body weight change on Day 21” value [1, 4] was −2%. For the same molecule, the “clinical signs after administration” value [1, 4] was “recumbent and their voluntary activities were reduced”.

For `CC(=O)O[C@H]1C(=O)[C@@]2(C)[C@H]([C@H](OC(=O)c3ccccc3)[C@]3(O)C[C@H](OC(=O)[C@H](O)[C@@H](NC(=O)c4ccccc4)c4ccccc4)C(C)=C1C3(C)C)[C@]1(OC(C)=O)CO[C@@H]1C[C@@H]2O` [Taxol, paclitaxel], the “Increase Life Span (%)” value ([2]; Paclitaxel 10 mg/kg) was −28.57% and the “Median Survival Time” value ([2]; Paclitaxel 10 mg/kg) was 10 days and 10 ± 1 days.

In the case of `CC(=O)N[C@@H](CSSCCCC(=O)OC(C(=O)O[C@H]1C[C@@]2(O)[C@@H](OC(=O)c3ccccc3)[C@@H]3[C@]4(OC(C)=O)CO[C@@H]4C[C@H](O)[C@@]3(C)C(=O)[C@H](OC(C)=O)C(=C1C)C2(C)C)[C@@H](NC(=O)c1ccccc1)c1ccccc1)C(=O)N[C@H](CCCNC(=N)N)C(=O)N[C@H](CCCNC(=N)N)C(=O)N[C@H](CCCNC(=N)N)C(=O)N[C@H](CCCNC(=N)N)C(=O)N[C@H](CCCNC(=N)N)C(=O)N[C@H](CCCNC(=N)N)C(=O)N[C@H](CCCNC(=N)N)C(=O)N[C@H](CCCNC(=N)N)C(N)=O` (stereo partly drawn) [Compound 3, Ac-L-Cysteine (paclitaxel-4-mercaptobutanoate)-D-Arginine8-NH2], the “Increase Life Span (%)” value ([2]; Compound 3 9.6 mg/kg) is reported as 0.00%, the “Median Survival Time” value ([2]; Compound 3 9.6 mg/kg) is reported as 14 days and the “Increase Life Span (%)” value ([2]; Compound 3 19.2 mg/kg) is reported as −28.57%. The “Median Survival Time” value ([2]; Compound 3 19.2 mg/kg) was 10 ± 2 days, the “survivors at the end point” value ([2]; Compound 3 38.4 mg/kg) was “one mouse in Compound 3 38.4 mg/kg group was still alive” and the “Increase Life Span (%)” value ([2]; Compound 3 38.4 mg/kg) was 0.00%. For the same molecule, the “Median Survival Time” value ([2]; Compound 3 38.4 mg/kg, 38.4 mg/kg) was 14 days and 14 ± 1 days, the “body weight higher compared with the vehicle (PBS) group” value ([1]; 9.6 mg/kg IP Q5D, end of experiment) was “about 24%” and the “Weight on day 21 (MEAN ± SD)” value [1, 5] was 18.5 ± 1.4. For the same molecule, the “Weight on day 0 (MEAN ± SD)” value [1, 5] was 16.3 ± 1.0, the “Weight gain (%)” value [1, 5] was “about 13%” and the “Weight gain (%)” value ([1]; Table 7A (Compound 3 set), Compd 3 9.6 mg/kg, listed as Compd 3) was 13%. For the same molecule, the animal deaths [1, 4] was “no animal deaths were reported” and the “body weight change on Day 21” value [1, 4] was “+22.1%”.
